Where two headings read alike, the source gives them in different places.
What was measured:
αβ-tubulin (bovine) [1] = target: αβ-tubulin (bovine) (UniProt Q6B856); assay: co-sedimentation
αβ-tubulin (bovine) [2] = target: αβ-tubulin (bovine) (UniProt Q6B856); assay: co-sedimentation; remark: listed apart in the source

critical concentration for spontaneous nucleation (αβ-tubulin (bovine) [1]): 3.9 µM | critical concentration for spontaneous nucleation (αβ-tubulin (bovine) [2]): 20.7 µM
Substance: αβ-tubulin (from UniProt Q6B856 1-445) (complex)
